Measured values as given in patent US20240091270A1.

Target: murine CD47 on mouse pancreatic beta islet cells (MIN6) (murine) (UniProt Q61735)
Experiment: cell-based or functional assay

Chain of UniProt Q61735 (Q61735 19-303): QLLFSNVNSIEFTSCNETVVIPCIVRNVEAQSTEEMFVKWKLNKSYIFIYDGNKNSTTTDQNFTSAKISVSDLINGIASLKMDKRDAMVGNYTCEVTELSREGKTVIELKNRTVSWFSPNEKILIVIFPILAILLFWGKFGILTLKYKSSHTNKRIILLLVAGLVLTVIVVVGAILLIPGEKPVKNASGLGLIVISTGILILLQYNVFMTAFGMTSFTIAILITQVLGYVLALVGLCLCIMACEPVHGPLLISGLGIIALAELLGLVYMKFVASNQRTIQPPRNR

relative increase in insulin protein content in glucose stimulated mouse pancreatic beta islet cells relative to vinculin (SDS-PAGE band density): > 2 fold
Substance: anti-CD47 blocking antibody (clone MIAP301, SC-12731, Santa Cruz Inc.)
